Consider two substances from publication doi:10.1101/2022.08.17.504309.

The assay addresses C-type lectin domain of CD62P (P-selectin), residues 1-117, wild type (UniProt P16109). In words: ELISA.
Sequence of UniProt P16109 (P16109 42-158): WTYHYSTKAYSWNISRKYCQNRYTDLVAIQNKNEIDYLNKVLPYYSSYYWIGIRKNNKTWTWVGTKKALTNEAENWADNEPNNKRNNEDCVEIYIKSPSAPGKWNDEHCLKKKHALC

For “soluble integrin αvβ3 (from UniProt P06756;P05106) (complex)”, the fold binding against the combined lectin and EGF-like domains amounted to 2 fold.

“soluble recombinant integrin αIIbβ3 (from UniProt P08514;P05106) (complex)”: the fold binding against the combined lectin and EGF-like domains was 2 fold.
